From article PMC5173322, “Neurodegenerative disease mutations in TREM2 reveal a functional surface and distinct loss-of-function mechanisms” (eLife, 2016) come the findings set out here.

The data set deals with the molecule itself. Description: SEC; preparative SEC of NHD mutant ectodomains harvested from 293F suspension cells; fractions analysed by anti-6His Western blot. (In general: SEC sorts molecules by how far they enter the pores of the column.)

B1: human TREM2 ectodomain Y38C (domain or fragment, UniProt Q9NZC2 19-134, looked up)
chain: HNTTVFQGVAGQSLQVSCPCDSMKHWGRRKAWCRQLGEKGPCQRVVSTHNLWLLSFLRRWNGSTAITDDTLGGTLTITLRNLQPHDAGLYQCQSLHGSEADTLRKVLVEVLADPLD
notes: TREM2, human, ectodomain, limits as the WT ectodomain (amino acids 19-134), Nasu-Hakola disease mutation Y38C; it was detected by anti-6His Western blot; also called NHD mutant Y38C; source: Freestyle 293F cells, transfected, secreted; harvested for preparative SEC; not shown: His6, C-terminal, kept
As to B1, the binding result is on record as “binds”.

B2: human TREM2 ectodomain V126G (domain or fragment, UniProt Q9NZC2 19-134, looked up)
chain: HNTTVFQGVAGQSLQVSCPYDSMKHWGRRKAWCRQLGEKGPCQRVVSTHNLWLLSFLRRWNGSTAITDDTLGGTLTITLRNLQPHDAGLYQCQSLHGSEADTLRKVLGEVLADPLD
notes: TREM2, human, ectodomain, limits as the WT ectodomain (amino acids 19-134), Nasu-Hakola disease mutation V126G; it was detected by anti-6His Western blot; also called NHD mutant V126G; source: Freestyle 293F cells, transfected, secreted; harvested for preparative SEC; not shown: His6, C-terminal, kept
For B2, the binding result was “binds”.

B3: human TREM2 ectodomain T66M (domain or fragment, UniProt Q9NZC2 19-134, looked up)
chain: HNTTVFQGVAGQSLQVSCPYDSMKHWGRRKAWCRQLGEKGPCQRVVSMHNLWLLSFLRRWNGSTAITDDTLGGTLTITLRNLQPHDAGLYQCQSLHGSEADTLRKVLVEVLADPLD
notes: TREM2, human, ectodomain, limits as the WT ectodomain (amino acids 19-134), Nasu-Hakola disease mutation T66M; it was detected by anti-6His Western blot; also called NHD mutant T66M; source: Freestyle 293F cells, transfected, secreted; harvested for preparative SEC; not shown: His6, C-terminal, kept
Turning to B3, the binding result is “binds”.
